Results as given in US20170022258A1, “PEPTIDES FOR USE IN THE TREATMENT OF IL-1 RELATED DISEASES AND CONDITIONS” (C4M PHARMACEUTICALS PTY LTD., priority 2011, published 2017).
Non-standard residues stand in square brackets, D forms with d. No end group written: not given here.

Key:
[1] = system: IL-1α+IFN-γ induced IL-17 production by HT-29 cells; experiment: IL-1α+IFN-γ induced IL-17 production by HT-29 cells; assay type: cell-based, human; settings: IL-1ra control
Protocol: (§1) Human colon epithelial cell lines HT-29 and Caco2 obtained from the European Collection of Animal Cell Cultures (ECACC) were used in cell cultures. Cells were routinely cultured at 37° C. in an atmosphere of 5% CO2 in 80 cm^2 tissue culture flasks in McCoy's and DMEM medium, respectively, supplemented with penicillin (10 u/ml), streptomycin (10 μg/ml), fungizone (0.5 μg/ml), and 10% (v/v) FCS (referred to as complete medium) until confluent.
(§2) Confluent monolayers were sub-cultured into 6-well plates for experimental protocols. Cells were grown in 6-well plates until confluent. Twenty-four hours prior to the experiment the confluent monolayers were washed and cultured in FCS-free McCoy's medium. Growth arrested cultures were then treated with fresh FCS-free medium and stimulated with vehicle controls or various doses of IL-1α added alone or in combination with other pro-inflammatory cytokines (TNF-α, IFN-γ) in the presence or absence of the peptide of sequence 4 or IL-1 ra, in a dose and time dependent manner.
(§3) Supernatants were collected, centrifuged to remove cellular debris and stored at −70° C. until assayed for extracellular inflammatory mediators. […] Production of soluble mediators was assessed by commercially available ELISA in supernatants, RT-PCR in total RNA extractants and nitric oxide, as described in Kolios, G, et al. (1995). […]

[2] = system: IL-1α+IFN-γ induced IL-8 production by HT-29 cells; experiment: IL-1α+IFN-γ induced IL-8 production by HT-29 cells; assay type: cell-based, human; settings: IL-1ra control
Protocol: as §1, §2
(§4) Supernatants were collected, centrifuged to remove cellular debris and stored at −70° C. until assayed for extracellular inflammatory mediators. Total RNA for RT-PCR was extracted as described above. Cell counting and viability was routinely checked at the beginning and the end of the experiment by phase microscopy and by trypan blue exclusion using representative wells. Mycoplasma tests were performed during the experimental protocol. Production of soluble mediators was assessed by commercially available ELISA in supernatants, RT-PCR in total RNA extractants and nitric oxide, as described in Kolios, G, et al. (1995). Br J Pharmacol, 116, 2866-2872, the contents of which are incorporated herein by reference.
Stimulation of HT-29 cells with a combination of pro-inflammatory cytokines induces increased secretion of chemokines, including IL-8 (as described in Kolios, G, et al. (1999). Eur J Immunol, 29, 530-536 the contents of which are herein incorporated by reference). […]

[3] = system: IL-1 stimulation of IL-8 in human skin fibroblasts; experiment: Inhibition of IL-1 induced IL-8 in human fibroblasts; assay type: cell-based; settings: n=3; maximal activation with IL-1 only 2530±13 pg/ml
Protocol: Inhibition of IL-1 induced IL-8 in human fibroblasts was determined using normal human dermal fibroblast cells cultured in DMEM with 10% fetal calf serum in 48-well plates.
Twenty-four hours before initiation of the experiment, the medium was changed to DMEM with 0.2% fetal calf serum. Each peptide was added to confluent cells, which were then pulsed for 30 min with rIL-I,B (which was obtained from R & D Systems) at 50 pg/ml. The cells were washed four times with PBS, and fresh DMEM/0.2% fetal calf serum was added to each well. After 5 hr of incubation, the culture media were collected and analyzed by ELISA for IL-8 (which was obtained from R & D Systems). Maximal activation, with IL-1 only, was 2530±13 pg/ml of IL-8. Nonspecific activation, determined in the presence of 1000-fold excess IL-1Ra, was 30±9 pg/ml of IL-8 (n=3).

[4] = system: IL-1α-induced IL-8 production by Caco2 cells; experiment: IL-1α induced IL-8 production by Caco2 colonic adenocarcinoma cells; assay type: cell-based, human; settings: IL-1ra 100 ng/ml, IL-1α alone 476.93±78.9, n=3
Protocol: as §1, §2, §3

[5] = system: IL-1α-induced IL-8 production by HT-29 cells; experiment: IL-1α induced IL-8 production by HT-29 colonic epithelial cells; assay type: cell-based, human; settings: IL-1ra 500 control
Protocol: as §1, §2, §4
HT 29 and Caco2 colonic epithelial cell lines were stimulated with 10 ng/ml of IL-la in the presence of 100 or 500 ng/ml of the peptide of sequence 4.

[6] = background statement; cited from earlier work
[7] = target: IL-1 receptor (IL-1R) expressed on human monocytes (human) (UniProt P14778); experiment: cell-based or functional assay
[8] = target: IL-1 receptor (IL-1R) expressed on human monocytes (human) (UniProt P14778); experiment: radioligand competition, 40 pM 125I-IL-1α on confluent human monocytes
[9] = target: T1, IL-1 receptor (IL-1R) expressed on human monocytes (human), P14778; experiment: as above
T1 chain: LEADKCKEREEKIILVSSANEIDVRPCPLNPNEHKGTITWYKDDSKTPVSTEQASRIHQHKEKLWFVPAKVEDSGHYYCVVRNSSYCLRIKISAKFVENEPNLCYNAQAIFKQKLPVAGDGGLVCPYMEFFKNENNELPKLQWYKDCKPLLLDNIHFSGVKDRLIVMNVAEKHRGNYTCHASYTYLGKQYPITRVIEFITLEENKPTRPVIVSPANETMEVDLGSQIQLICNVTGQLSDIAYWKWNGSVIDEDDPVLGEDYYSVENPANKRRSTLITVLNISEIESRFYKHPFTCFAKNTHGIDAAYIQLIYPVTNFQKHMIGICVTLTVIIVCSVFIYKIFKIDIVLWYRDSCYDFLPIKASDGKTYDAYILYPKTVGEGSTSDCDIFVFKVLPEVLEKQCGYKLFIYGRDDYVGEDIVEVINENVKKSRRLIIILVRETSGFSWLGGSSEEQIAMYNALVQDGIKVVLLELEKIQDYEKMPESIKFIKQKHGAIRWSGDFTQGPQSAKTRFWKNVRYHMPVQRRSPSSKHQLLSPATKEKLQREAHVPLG

[10] = target: T1, IL-1 receptor (IL-1R) expressed on …; experiment: cell-based or functional assay

IL-1ra: IL-1R antagonist, member of the IL-1 cytokine family; competitively inhibits the activities of IL-1 [reference compound]
IL-17 production without cytokine stimulation [1]: did not produce significant amounts of IL-17 | IL-8 production in the absence of IL-1α [2]: did not result in production of IL-8 | IL-8, nonspecific activation in the presence of 1000-fold excess IL-1Ra [3]: 30 ± 9 pg/mL | IL-1α-induced IL-8 secretion [4]: 923.95±63.69 pg/ml per 106 cells | IL-8 production in the absence of IL-1α [5]: did not result in production of IL-8

recombinant IL-1Ra: recombinant full length IL-1Ra approved for methotrexate resistant rheumatoid arthritis (Amgen: Kineret-Anakinra)
half-life [6]: approximately six

Ac-[dL][dP][dL][dA][dY][dP][dQ][dW][dY][dR][dE]G[dS][dQ][dR][dW][dR][dD][dY]G[dD] (not fully specified (residues 12, 20); printed as Ac-LPLAYPQWYREGSQRWRDYGD) [peptide of SEQ ID NO: 21 (Ac-…, D-amino acids)]
IC50, in vitro inhibition of IL-1 stimulation of IL-8 in human skin fibroblasts (rIL-1β 50 pg/ml, IL-8 ELISA) [7]: 730 nM | IC50 [8]: 240 nM

Ac-[dL][dP][dL][dA][dY][dP][dQ][dW][dY][dY][dA][dN][dS][dE][dE][dW][dT][dF] [peptide of SEQ ID NO: 16 (Ac-…, D-amino acids)]
IC50, in vitro inhibition of IL-1 stimulation of IL-8 in human skin fibroblasts (rIL-1β 50 pg/ml, IL-8 ELISA) [7]: 120 nM | IC50 [8]: 22 nM

Ac-[dL][dP][dL][dA][dY][dP][dQ][dW][dY]G[dP][dT][dW][dE][dF][dS][dS][dV][dN][dA][dT] (not fully specified (residue 10); printed as Ac-LPLAYPQWYGPTWEFSSVNAT) [peptide of SEQ ID NO: 18 (Ac-…, D-amino acids)]
IC50, in vitro inhibition of IL-1 stimulation of IL-8 in human skin fibroblasts (rIL-1β 50 pg/ml, IL-8 ELISA) [7]: 810 nM | IC50 [8]: 190 nM

Ac-[dL][dP][dL][dA][dY][dP][dQ][dW][dY]G[dP][dT][dW][dE][dF]
IC50 [9]: 6.9 nM | IC50, in vitro inhibition of IL-1 stimulation of IL-8 in human skin fibroblasts (rIL-1β 50 pg/ml, IL-8 ELISA) [10]: 5.9 nM
